B1: Double-stranded RNA-binding protein Staufen homolog 1, residues 183 to 249; numbered along this chain, O95793 (parent)
chain: KSEISQVFEIALKRNLPVNFEVARESGPPHMKNFVTKVSVGEFVGEGEGKSKKISKKNAAIAVLEEL
B2: DnaJ homolog subfamily C member 5, residues 16 to 77; numbered along this chain, Q9H3Z4 (parent)
chain: LYHVLGLDKNATSDDIKKSYRKLALKYHPDKNPDNPEAADKFKEINNAHAILTDATKRNIYD

Variants of: B1
Experiment: abundance fitness (aPCA) (normalised: wild type 0, dead -1); higher = more abundant; growth selection in yeast, the domain comes from the species named
Conditions: Homo sapiens

Abundance fitness: each site, then its substitutions
A60: C -0.067, N -0.739, R -0.882, I -0.452, V -0.489, Y -0.431, W -1.02, M -0.363, E -0.575, K -0.714, H -0.803, G -0.685, T -0.466, P -0.701, D -0.649, L -0.414, Q -0.741, F -0.068
K57: S -0.43, T 0.17, F -0.837, L -0.163, V -0.218
V63: M -0.239, Y -0.906, S -0.693, F -0.829, C -0.233, N -0.521, P -0.577, A -0.246, T -0.615, H -0.858, L -0.143, W -0.818, R -0.73, D -0.497, Q -0.597, G -0.482
A59: L -0.806, H -1.04, D -0.718, K -0.717, M -0.753, E -0.798, Q -0.785, P -1.08, F -0.911, W -0.937, S -0.608, N -0.705, G -0.61, Y -1.16, T -0.869, V -1.03, I -1.03, R -0.843, C -0.663
E66: R 0.123, S -0.005, N -0.012, G -0.118, F 0.103, Q 0.138, I 0.097, W -0.079, M 0.111, K 0.216, T -0.042, P -0.235, Y 0.063, C -0.037, H -0.002, L 0.114, V 0.077
N58: I -0.614, S -0.341, G -0.655, A -0.171, R -0.105, H -0.284, Y -0.4, V -0.565, Q -0.126, F -0.434, W -0.868, T -0.604, E -0.238, C -0.451, L -0.195, P -0.763, M -0.055, K -0.149
L64: K -0.472, W -0.67, Q -0.448, G -0.44, S -0.475, D -0.492, A -0.473, C -0.209, P -0.454, V -0.5, Y -0.713, M -0.218, N -0.423, R -0.517, E -0.433, I -0.584, F -1.15
E65: S 0.003, V -0.584, K 0.118, P -0.386, G -0.079, D -0.081, H -0.051, Y -0.212, M -0.336, A -0.038, Q -0.016, F -0.737, C -0.348, T -0.082, L -0.417, W -0.388, I -0.573, R 0.093
I61: W -0.624, P -0.556, L -0.061, D -0.53, M -0.095, Q -0.14, C -0.126, G -0.184, R 0.002, A 0.002, Y -0.478, V -0.104, T -0.292, H -0.218, S -0.045, F -0.39, E -0.245, N -0.181, K -0.047
S55: Y -1.07, T -0.815, W -1, V -0.865
K56: W -0.825, Y -0.254, M -0.35, H -0.743, V -0.32, L -0.36, F -0.476, C -0.524, D -0.661, G -0.599, Q -0.291, R -0.042, I -0.127, P -0.997, E -0.504, A -0.457, N -0.405
A62: L -0.68, I -0.384, D -0.185, H -0.242, R -0.121, E -0.353, T -0.381, C -0.223, V -0.403, K 0.023, G -0.302, M -0.226, S -0.112, Y -0.788, P -0.56, F -0.787, Q -0.086, N 0.035
L67: E -0.743, P -0.526, T -0.6, K -0.53, S -0.603, H -0.299, D -0.706, V -0.439, Q -0.423, Y -0.873, I -0.114, W -0.465, F -0.355, M 0, N -0.584, R -0.751, A -0.509, C -0.693, G -0.438

Variants of: B2
Experiment: as above
Conditions: Homo sapiens

Abundance fitness: each site, then its substitutions
L1: C -0.284, M 0.022, R -0.741, T -0.542, F 0.197, A -0.124, N 0.262, W -0.352, G -0.539, S -0.198, E -0.14, I -0.084, K -0.269
V4: D -0.458, G -0.599, Q -0.546, P -0.733, M -0.078, S -0.259, C -0.056, T -0.209, F -0.362, Y -0.553, E -0.374, R -0.765, K -0.646, W -0.687, L -0.292, N -0.15, A 0.034, I -0.054
L7: I -0.477, N -0.434, R -0.608, W -0.949, V -0.103, K -0.365, Y -1.01, C -0.149, T -0.721, E -0.298, A -0.298, F -0.734, P -0.231, Q -0.309, D -0.316, H -0.54, S -0.345
H3: A -0.14, G -0.157, M -0.153, L -0.364, F -0.216, I -0.423, Y -0.489, D -0.528, C -0.148, P -0.602, E -0.114, R -0.185, T -0.017, N -0.27, W -0.301, Q -0.116, S 0.147, K -0.133
G6: A -0.485, Y -0.671, L -0.625, S -0.559, R -0.488, D -0.046, F -0.985, V -1.42, K -0.751, W -1.02, N 0.069, P -0.799, M -0.655, C -0.466, E -0.866
Y2: G -0.28, E -0.098, K -0.692, A -0.496, Q -0.358, R -0.922, N -0.011, H -0.492, S -0.516, W -0.534, C -0.686, I -0.809, T -0.357, D -0.18, F -0.394, M -0.422, L -0.653, V -0.873
D8: Y -0.421, T -0.309, Q -0.019, A -0.258, N -0.277, C -0.497, G -0.459, M -0.355, R -0.44, S -0.378, W -0.648, V -0.648, F -0.533, I -0.807, H -0.42, P 0.108, K -0.516
L5: N 0.123, K -0.444, E -0.14, V -0.906, Y -0.606, Q 0.084, P -0.221, T -0.368, M -0.32, S -0.267, R -0.889, H 0.038, G -0.713
